Measurements reported in patent publication US20250154238A1 (YALE UNIVERSITY, published 2025).

Experiments:
[1] = target: T1, recombinant human epiregulin containing the epidermal growth factor (EGF) domain (R&D Biosciences Cat … (human, UniProt O14944 63-108)); assay: cell-based or functional assay
[2] = target: T1, recombinant human epiregulin containing …; assay: Octet bio-layer interferometry, recombinant human epiregulin immobilized
[3] = target: T1, recombinant human epiregulin containing …; assay: cell-based or functional assay; remark: listed apart in the source
[4] = target: T1, recombinant human epiregulin containing …; assay: cell-based or functional assay; remark: listed apart in the source

T1 sequence (O14944 63-108 limits assumed): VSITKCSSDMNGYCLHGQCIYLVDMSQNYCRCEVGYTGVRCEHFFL

IC50 of inhibition of HFF proliferation induced by 100 ng/ml rhEreg (GFP fluorescence, CyQUANT, day 3) [1]: 0.27 µg/mL
Kd [2]: 0.038 nM
IC50 (nM), calculated from HFF proliferation assays [3]: 1.8 nM
IC50 of inhibition of epiregulin-induced HFF proliferation (rhEreg 100 ng/ml) [4]: 0.1 to 0.3 µg/mL
B1: humanized epiregulin neutralizing antibody 1 (hEreg NAb1) (antibody, V domains shown)
VH: HLQLQESGPGLVKSSETLSLTCSVSGGSISSSGYYWGWIRQPPGKGLEWIGSFYYSGNTYYNPSLKSRVTISADTSKSQYSLKLSSVTAADTAVYYCARHPFNWNDHYHYMDVWGNGTTVTVSS
VL: DIQMTQSPSSLSASVGDSVTITCRASQSISNYLNWYQKKPGKAPKVLIYAASSLQSGVPSRFSGSGSGTDFTLTISSLQPEDFATYYCQQSYITSITFGQGTRLEIK
notes: The clone comes from hybridomas of Alloy mice (fully human variable regions) and represents wells M3, M4 and M5; also called humanized epiregulin antibody; M3
